Values quoted from earlier work, collected in article PMC10170156.

Biological target: EGFR (Homo sapiens) (UniProt P00533)

- Kd: 4 nM
Substance: EGF (from UniProt P01133)
